Data on one protein can be found in patent US20200032346.

Data set [1] addresses T1, mutant peptide 3 (FLKTIQEVAGAVLIALNTVER).
T1 chain: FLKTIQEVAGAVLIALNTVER

In data set [2] the target is T2, peptide 7 (NSYALAVLSNYDANKTGLKEL).
T2 chain: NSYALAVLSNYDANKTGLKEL

Data set [3] addresses T3, peptide 12 (SCVRACGADSYEMEEDGVRKC).
T3 chain: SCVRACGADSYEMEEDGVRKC

The target of data set [4] is T4, peptide 4 (ENLQIIRGNMYYENSYALAVL).
T4 chain: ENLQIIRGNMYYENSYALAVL

The target in data set [5] is T5, peptide 13 (VIISGNKNLCYANTINWKKLF).
T5 chain: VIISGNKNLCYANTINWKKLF

Data set [6] deals with T6, peptide 15 (MGENNTLVWKYADAGHVCHLC).
T6 chain: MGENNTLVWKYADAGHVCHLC

In data set [7] the target is T7, peptide 11 (ATCVKKCPRNYVVTDHGSCVR).
T7 chain: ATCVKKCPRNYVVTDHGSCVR

In data set [8] the target is HisTAG-EGFR^aa1-650, P00533.
Data set [9] addresses T8, peptide 6 (IRGNMYYENSYALAVLSNYDA).
T8 chain: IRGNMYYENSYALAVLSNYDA

Data set [10] concerns the target T9, peptide 14 (GPDNCIQCAHYIDGPHCVKTC).
T9 chain: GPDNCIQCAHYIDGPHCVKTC

Data set [11] addresses T10, peptide 8 (CKDTCPPLMLYNPTTYQMDVN).
T10 chain: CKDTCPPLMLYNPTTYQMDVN

The target in data set [12] is T11, peptide 16 (VCHLCHPNCTYGCTGPGLEGC).
T11 chain: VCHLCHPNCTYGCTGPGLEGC

The target in data set [13] is T12, peptide 2 (NLEITYVQRNYDLSFLKTIQE).
T12 chain: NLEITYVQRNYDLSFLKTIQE

Data set [14] concerns the target T13, peptide 1 (EVVLGNLEITYVQRNYDLSFL).
T13 chain: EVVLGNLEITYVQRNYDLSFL

The target of data set [15] is T14, peptide 10 (QMDVNPEGKYSFGATCVKK).
T14 chain: QMDVNPEGKYSFGATCVKK

The target of data set [16] is T15, peptide 3 (FLKTIQEVAGYVLIALNTVER).
T15 chain: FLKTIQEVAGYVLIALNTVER

In data set [17] the target is T16, peptide 5 (NLQIIRGNMYYENSYALAVLS).
T16 chain: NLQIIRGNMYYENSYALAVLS

Data set [18] concerns the target T17, peptide 9 (PPLMLYNPTTYQMDVNPEGKY).
T17 chain: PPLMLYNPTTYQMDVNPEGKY

Data set [19] addresses HisTAG-ΔEGFR N-terminusY88A, P00533.

B1: GST-MAN2A1-FER (protein)
chain: MKLSRQFTVFGSAIFCVVIFSLYLMLDRGHLDYPRNPRREGSFPQGQLSMLQEKIDHLERLLAENNEIISNIRDSVINLSESVEDGPKSSQSNFSQGAGSHLLPSQLSLSVDTADCLFASQSGSHNSDVQMLDVYSLISFDNPDGGVWKQGFDITYESNEWDTEPLQVFVVPHSHNDPGWLKTFNDYFRDKTQYIFNNMVLKLKEDSRRKFIWSEISYLSKWWDIIDIQKKDAVKSLIENGQLEIVTGGWVMPDEATPHYFALIDQLIEGHQWLENNIGVKPRSGWAIDPFGHSPTMAYLLNRAGLSHMLIQRVHYAVKKHFALHKTLEFFWRQNWDLGSVTDILCHMMPFYSYDIPHTCGPDPKICCQFDFKRLPGGRFGCPWGVPPETIHPGNVQSRARMLLDQYRKKSKLFRTKVLLAPLGDDFRYCEYTEWDLQFKNYQQLFDYMNSQSKFKVKIQFGTLSDFFDALDKADETQRDKGQSMFPVLSGDFFTYADRDDHYWSGYFTSRPFYKRMDRIMESHLRAAEILYYFALRQAHKYKINKFLSSSLYTALTEARRNLGLFQHHDAITGTAKDWVVVDYGTRLFHSLMVLEKIIGNSAFLLILKDKLTYDSYSPDTFLEMDLKQKSQDSLPQKNIIRLSAEPRYLVVYNPLEQDRISLVSVYVSSPTVQVFSASGKPVEVQVSAVWDTANTISETAYEGNFGEVYKGTLKDKTSVAVKTCKEDLPQELKIKFLQEAKILKQYDHPNIVKLIGVCTQRQPVYIIMELVSGGDFLTFLRRKKDELKLKQLVKFSLDAAAGMLYLESKNCIHRDLAARNCLVGENNVLKISDFGMSRQEDGGVYSSSGLKQIPIKWTAPEALNYGRYSSESDVWSFGILLWETFSLGVCPYPGMTNQQAREQVERGYRMSAPQHCPEDISKIMMKCWDYKPENRPKFSELQKELTIIKRKLT
Turning to B1, the “phosphorylation assay on synthetic peptide” value (from here on “phosphorylation assay”) in data set [1] was “mutant peptide was not phosphorylated by the fusion protein”; in [2] it was “only the sequence corresponding to FLKTIQEVAGYVLIALNTVER (peptide 3) in EGFR was phosphorylated by GST-MAN2A1-FER”; in [3], “only the sequence corresponding to FLKTIQEVAGYVLIALNTVER (peptide 3) in EGFR was phosphorylated by GST-MAN2A1-FER”; in [4] it was “only the sequence corresponding to FLKTIQEVAGYVLIALNTVER (peptide 3) in EGFR was phosphorylated by GST-MAN2A1-FER”; in data set [5], “only the sequence corresponding to FLKTIQEVAGYVLIALNTVER (peptide 3) in EGFR was phosphorylated by GST-MAN2A1-FER”; in data set [6], “only the sequence corresponding to FLKTIQEVAGYVLIALNTVER (peptide 3) in EGFR was phosphorylated by GST-MAN2A1-FER”. Moreover, the “phosphorylation assay” value in [7], in data set [9], in data set [10], in data set [11], in data set [12] and in data set [13] was “only the sequence corresponding to FLKTIQEVAGYVLIALNTVER (peptide 3) in EGFR was phosphorylated by GST-MAN2A1-FER” each time. For the same protein, the “phosphorylation assay” value in data set [14], in [15], in data set [16], in [17] and in data set [18] was “only the sequence corresponding to FLKTIQEVAGYVLIALNTVER (peptide 3) in EGFR was phosphorylated by GST-MAN2A1-FER” each time. In addition, the “phosphorylation of HisTAG-ΔEGFR^aa1-650 by GST-MAN2A1-FER with an excessive amount of peptide” value in data set [1] was “peptide 3, but not the mutant counterpart, partially blocked the phosphorylation of EGFR N-terminus by GST-MAN2A1-FER”; in data set [16], “peptide 3, but not the mutant counterpart, partially blocked the phosphorylation of EGFR N-terminus by GST-MAN2A1-FER”. In addition, the “in vitro kinase assay, phosphorylation of the substrate” value in data set [8] is recorded as “GST-MAN2A1-FER phosphorylated the recombinant HisTAG-EGFR^aa1-650 in an ATP dosage-dependent manner”; in data set [19], “No phosphorylation was found when Y88 was mutated to alanine in EGFR N-terminus”.
